The values below come from paper PMC11640315.

The target in this assay is Retinoid X receptor of turbot, HA-tagged (pcDNA3.1-RXR-HA) (turbot (Scophthalmus maximus)).

Take “Farnesoid X receptor of turbot, Flag-tagged (pcDNA3.1-FXR-Flag)”: the activity of the SHP promoter, dual-luciferase reporter assay in HEK293 cells; co-transfection of FXR and RXR plasmids against the FXR plasmid was 3 times.
